These are literature values, as cited in PMC2679154.

Usually pKd stands for −log10 of the Kd, conventionally taken in molar units.

This data set concerns the target IGF-IR (Homo sapiens) (UniProt P08069).

pKd: −log10 of the molar value.

Sequence of UniProt P08069 (P08069 31-736, chain 1 of 2): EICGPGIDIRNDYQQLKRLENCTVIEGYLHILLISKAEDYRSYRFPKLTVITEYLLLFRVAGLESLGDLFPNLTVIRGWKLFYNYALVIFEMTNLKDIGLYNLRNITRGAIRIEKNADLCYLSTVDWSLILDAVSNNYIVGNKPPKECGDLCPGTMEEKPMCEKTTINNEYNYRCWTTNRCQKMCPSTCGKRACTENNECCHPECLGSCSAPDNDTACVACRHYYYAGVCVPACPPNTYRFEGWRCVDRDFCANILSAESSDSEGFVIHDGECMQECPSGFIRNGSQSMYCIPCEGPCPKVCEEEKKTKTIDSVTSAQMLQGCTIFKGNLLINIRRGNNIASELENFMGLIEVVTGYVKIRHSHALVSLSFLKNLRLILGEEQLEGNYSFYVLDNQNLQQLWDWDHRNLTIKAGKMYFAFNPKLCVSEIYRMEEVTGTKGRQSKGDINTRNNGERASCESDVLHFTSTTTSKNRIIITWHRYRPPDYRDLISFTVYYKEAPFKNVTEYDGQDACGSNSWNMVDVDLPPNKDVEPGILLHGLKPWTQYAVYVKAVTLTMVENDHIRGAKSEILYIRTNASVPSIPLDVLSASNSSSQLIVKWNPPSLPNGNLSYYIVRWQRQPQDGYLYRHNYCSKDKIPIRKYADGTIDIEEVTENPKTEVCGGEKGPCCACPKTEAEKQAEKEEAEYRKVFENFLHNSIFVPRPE
Sequence of UniProt P08069 (P08069 741-935, chain 2 of 2): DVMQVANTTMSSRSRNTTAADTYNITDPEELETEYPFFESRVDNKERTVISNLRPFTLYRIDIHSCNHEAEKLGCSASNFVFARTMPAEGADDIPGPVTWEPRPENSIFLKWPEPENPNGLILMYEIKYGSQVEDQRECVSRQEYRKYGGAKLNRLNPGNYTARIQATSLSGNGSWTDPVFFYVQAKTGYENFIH

Consider insulin (from UniProt P01308), for which the pKd was 7.00.
